The values below come from patent US20060159654A1 (ROCKEFELLER UNIVERSITY, published 2006).

For test [1], the target named is murine TRANCE receptor (TRANCE-R) on the cell surface (murine) (UniProt O35305). Put plainly: cell-based or functional assay.
The target in test [2] is T1, murine TRANCE (mTRANCE) on the cell surface (murine, UniProt O35235 1-316).
T1 construct: also called RANK-L
T1 sequence: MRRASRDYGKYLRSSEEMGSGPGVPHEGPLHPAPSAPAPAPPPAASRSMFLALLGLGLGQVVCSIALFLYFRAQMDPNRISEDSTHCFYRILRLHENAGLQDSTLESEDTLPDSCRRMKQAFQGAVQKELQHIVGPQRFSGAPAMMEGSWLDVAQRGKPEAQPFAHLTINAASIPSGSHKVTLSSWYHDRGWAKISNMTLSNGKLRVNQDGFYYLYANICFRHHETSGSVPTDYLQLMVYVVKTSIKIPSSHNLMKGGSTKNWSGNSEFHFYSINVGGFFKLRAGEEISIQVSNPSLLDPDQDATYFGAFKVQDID
Put plainly: flow cytometry on transfected 293T cells and on activated murine T cells, TR-Fc at 5 mg/ml as printed, FITC anti-human Fc. On the procedure: Determination of the specificity of hCD8-TRANCE and TR-Fc.
Flow cytometry. The expression of TRANCE on activated CD4+ and CD8⁺ T-cells was assessed using the TR-Fc fusion protein at 5 mg/ml followed by FITC-conjugated goat anti-human IgG (Fc specific) F(ab′)₂ fragment (Jackson. Laboratories, West Grove, Pa.). The negative control consisted of normal hIgG1 (Sigma, St Louis, […].). T-cell and thymocyte subsets were sorted using a FACS “VANTAGE”, (Becton Dickinson, Mountain View, Calif.).
In general terms: Flow cytometry measures light scatter and fluorescence of single cells or particles in a stream.

As for “FLAG-tagged soluble form of TRANCE (TRANCE-Ecto) (from UniProt O35235 72-316) (ligand)”, in test [1], the JNK activation (fold induction over unstimulated), LNTC came out at 2 fold; the JNK activation (fold induction over unstimulated), T cell hybridomas came to 2 fold; the JNK activation (fold induction over unstimulated), thymocytes was 3 fold. Regarding “human CD8-TRANCE recombinant molecule (from UniProt P01732 22-182) (ligand)”, the JNK activity in thymocytes of control littermates in test [1] came to 2.5 fold.

B1: TRANCE-R-Fc recombinant molecule (Fc fusion, murine, UniProt O35305 31-214, looked up)
chain: VTPPCTQERHYEHLGRCCSRCEPGKYLSSKCTPTSDSVCLPCGPDEYLDTWNEEDKCLLHKVCDAGKALVAVDPGNHTAPRRCACTAGYHWNSDCECCRRNTECAPGFGAQHPLQLNKDTVCTPCLLGFFSDVFSSTDKCKPWTNCTLLGKLEAHQGTTESDVVCSSSMTLRRPPKEAQAYLPS
notes: extracellular domain; Made in a baculovirus system and purified on protein A sepharose; also called TR-Fc; TR.R-Fc; not shown: Fc portion of human IgG1, fused to the C-terminal end of the receptor's extracellular domain
As to B1, the binding result in test [2] is on record as “binds”.
